PMC4654411

Molecular target: Full-length HA-tagged PTPN12 (human) (UniProt Q05209)
Assay: co-IP; Hek293 cells co-transfected with HA-PTPN12 and GFP-tagged FlnAs; 500 µg lysate in NETF buffer, 6 µg anti-HA 2 h at 4 °C, protein A beads; immunoblot

UniProt Q05209, sequence (Q05209 whole entry): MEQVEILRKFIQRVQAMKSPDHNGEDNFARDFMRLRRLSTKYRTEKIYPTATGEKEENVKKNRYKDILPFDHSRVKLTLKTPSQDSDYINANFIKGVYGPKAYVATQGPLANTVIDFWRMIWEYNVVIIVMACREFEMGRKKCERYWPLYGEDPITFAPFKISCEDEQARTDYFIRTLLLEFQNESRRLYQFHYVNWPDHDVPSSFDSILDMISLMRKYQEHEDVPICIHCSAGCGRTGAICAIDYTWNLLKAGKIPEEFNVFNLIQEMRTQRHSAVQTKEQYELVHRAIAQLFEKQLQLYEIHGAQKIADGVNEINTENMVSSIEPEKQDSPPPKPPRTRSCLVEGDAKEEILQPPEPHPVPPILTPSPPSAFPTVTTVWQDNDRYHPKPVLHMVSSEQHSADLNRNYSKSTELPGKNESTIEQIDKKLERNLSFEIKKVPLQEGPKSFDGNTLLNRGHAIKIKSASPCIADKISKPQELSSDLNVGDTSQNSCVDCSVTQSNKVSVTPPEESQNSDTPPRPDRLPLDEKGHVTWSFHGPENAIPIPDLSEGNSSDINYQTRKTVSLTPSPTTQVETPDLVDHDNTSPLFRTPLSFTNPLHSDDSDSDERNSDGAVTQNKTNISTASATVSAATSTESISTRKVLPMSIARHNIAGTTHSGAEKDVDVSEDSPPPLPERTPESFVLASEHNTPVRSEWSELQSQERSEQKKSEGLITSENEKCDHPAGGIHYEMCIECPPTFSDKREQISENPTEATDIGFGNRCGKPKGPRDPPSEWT

Row | reduction of the FlnA co-immunoprecipitated with respect to FlnA-WT [%] | Substance
1 | > 60 | GFP-tagged-FlnA-G288R, P21333 1-2647
2 | > 60 | GFP-tagged-FlnA-P637Q, P21333 1-2647
